Measurements taken from publication PMC11535055, “ER-phagy restrains inflammatory responses through its receptor UBAC2” (The EMBO Journal, 2024).

How the values were obtained:
GABARAP = GABARAP (UniProt O95166); assay: co-IP Flag-GABARAP with HA-UBAC2; conditions: reference: wild type; sites S223
[1] = target: the molecule itself; assay: cross-linking; extracts of HeLa cells (also WT THP-1 macrophages and HT-29 cells) treated with TG or EBSS in the presence of Baf A1 (0.2 uM); 2 mM disuccinimidyl suberate (DSS), immunoblot for endogenous UBAC2
[2] = target: the molecule itself; assay: cross-linking; 293T cells transfected with WT UBAC2 or S223 mutants, TG (1 uM, 1 h) or EBSS (3 h) with Baf A1 (0.2 uM), with scramble or MARK2 siRNA; lysates treated with 2 mM DSS, immunoblot

Molecule	stoichiometry N [2]	further results
UBAC2 (from UniProt Q8NBM4) S223A	–	binding against the reference (GABARAP): weaker
UBAC2, endogenous (natural protein, human (endogenous in HeLa, THP-1, HT-29), UniProt Q8NBM4 36-344, looked up, UBAC2 endogenous in human cell lines; also called ubiquitin-associated domain-containing protein 2; source: endogenous, lysates of HeLa cells, THP-1-derived macrophages and HT-29 cells) HCQKLFVYDLHAVKNDFQIWRLICGRIICLDLKDTFCSSLLIYNFRIFERRYGSRKFASFLLGSWVLSALFDFLLIEAMQYFFGITAASNLPSGFLAPVFALFVPFYCSIPRVQVAQILGPLSITNKTLIYILGLQLFTSGSYIWIVAISGLMSGLCYDSKMFQVHQVLCIPSWMAKFFSWTLEPIFSSSEPTSEARIGMGATLDIQRQQRMELLDRQLMFSQFAQGRRQRQQQGGMINWNRLFPPLRQRQNVNYQGGRQSEPAAPPLEVSEEQVARLMEMGFSRGDALEALRASNNDLNVATNFLLQH	–	stoichiometry N [1]: 2
UBAC2 wild type, transfected (cross-linking experiments) (natural protein, human, UniProt Q8NBM4 36-344, looked up, UBAC2, human; also called WT UBAC2) HCQKLFVYDLHAVKNDFQIWRLICGRIICLDLKDTFCSSLLIYNFRIFERRYGSRKFASFLLGSWVLSALFDFLLIEAMQYFFGITAASNLPSGFLAPVFALFVPFYCSIPRVQVAQILGPLSITNKTLIYILGLQLFTSGSYIWIVAISGLMSGLCYDSKMFQVHQVLCIPSWMAKFFSWTLEPIFSSSEPTSEARIGMGATLDIQRQQRMELLDRQLMFSQFAQGRRQRQQQGGMINWNRLFPPLRQRQNVNYQGGRQSEPAAPPLEVSEEQVARLMEMGFSRGDALEALRASNNDLNVATNFLLQH	2	–
UBAC2 S223D, transfected (cross-linking experiments) (natural protein, human, UniProt Q8NBM4 36-344, looked up, UBAC2, human; also called S223D mutant form of UBAC2) HCQKLFVYDLHAVKNDFQIWRLICGRIICLDLKDTFCSSLLIYNFRIFERRYGSRKFASFLLGSWVLSALFDFLLIEAMQYFFGITAASNLPSGFLAPVFALFVPFYCSIPRVQVAQILGPLSITNKTLIYILGLQLFTSGSYIWIVAISGLMSGLCYDSKMFQVHQVLCIPSWMAKFFSWTLEPIFDSSEPTSEARIGMGATLDIQRQQRMELLDRQLMFSQFAQGRRQRQQQGGMINWNRLFPPLRQRQNVNYQGGRQSEPAAPPLEVSEEQVARLMEMGFSRGDALEALRASNNDLNVATNFLLQH	2	–
